Drawing on patent US20220378931A1 (Eli Lilly, published 2022), this text covers Ki for 17 molecules.

As a reminder, the Ki is the dissociation constant of the complex between target and ligand, obtained from inhibition or displacement.

Experiment [1] addresses T1, human insulin receptor isoform A with C-terminal C9 tag (human, UniProt P06213 28-1382).
T1 construct: membranes of stably transfected HEK293 cells; also called hIR-A; human IR-A
Kind of experiment: 125I-insulin competition SPA, hIR-A membranes, 0.1% BSA. The method, then:
(§1) The assays are performed with a SPA method using polyvinyltoluene (PVT) wheat germ agglutinin-coupled SPA beads (Perkin Elmer). Assay buffer contains 50 mM Tris-HCl, pH 7.5, 150 mM NaCl and either A) 0.1% w/v fatty-acid free BSA; B) 0.1% w/v fatty-acid free human serum albumin (HSA); C) 0.1% w/v rat serum albumin (RSA); or D) 0.001% Nonidet P-40 Substitute (NP-40, Roche Diagnostics). Ten-point concentration response curves using three-fold serial dilutions of test samples or controls are prepared in Assay Buffer using a Freedom/Evo robot (Tecan).
(§2) Percent specific inhibition (y-axis) is plotted versus the log concentration of compound (x-axis). […] Reported Ki values are shown as the geometric mean with the standard error (Delta Method Standard Error) and the number of independent replicate determinations used to calculate the geometric mean indicated by n.

Experiment [2] concerns the target T1, human insulin receptor isoform A with …. Nature of the experiment: 125I-insulin competition SPA, hIR-A membranes, 0.001% NP-40. The method, then: as §1, §2
In experiment [3] the target is T2, human insulin receptor isoform B with C-terminal C9 tag (human, UniProt P06213 28-1382).
T2 construct: membranes of stably transfected HEK293 cells; also called hIR-B; human IR-B
Kind of experiment: 125I-insulin competition SPA, hIR-B membranes, 0.1% HSA. As for the experimental part: as §1, §2

In experiment [4] the target is T1, human insulin receptor isoform A with …. Kind of experiment: 125I-insulin competition SPA, hIR-A membranes, 0.1% HSA. As for the experimental part:
as §1, §2

Experiment [5] has as its target T2, human insulin receptor isoform B with …. Kind of experiment: 125I-insulin competition SPA, hIR-B membranes, 0.1% BSA. As for the experimental part: as §1, §2
Experiment [6] has the same target. Nature of the experiment: 125I-insulin competition SPA, hIR-B membranes, 0.001% NP-40. As for the experimental part: as §1, §2

B1: INS Analog 19 (other)
chain: FVSQHLCGSHLVEALYLVCGERGFFYTPKTGGGGGGGIVEQCCTSICSLYQLENYCGGGGGQGGGGQGGGGQGGGGQGGGGQEVQLLESGGGLVQPGGSLRLSCAASGRYIDETAVAWFRQAPGKEREFVAGIGGGVDITYYADSVKGRFTISRDNSKNTLYLQMNSLRPEDTAVYYCAARPGRPLITSKVADLYPYWGQGTLVTVSSPP
notes: single-chain insulin B-L2-A-L1-VHH fusion; also called Ex. 19
Take B1: the Ki in experiment [1] was found to be 41.8 nM; in experiment [2], 18.5 nM.

B2: INS Analog 21 (other)
chain: FVSQHLCGSHLVEALHLVCGERGFHYTPKTGGGGGGGIVEQCCHSICSLYQLENYCGGGGGQGGGGQGGGGQGGGGQGGGGQEVQLLESGGGLVQPGGSLRLSCAASGRYIDETAVAWFRQAPGKEREFVAGIGGGVDITYYADSVKGRFTISRDNSKNTLYLQMNSLRPEDTAVYYCAARPGRPLITSKVADLYPYWGQGTLVTVSSPP
notes: single-chain insulin B-L2-A-L1-VHH fusion; also called Ex. 21
Turning to B2, the Ki in experiment [1] was 28 nM; in experiment [2] it was 8.3 nM.

B3: INS Analog 2 (other)
chain: FVDQHLCGSHLVEALYLVCGERGFFYTPKTGGGGGGGIVEQCCTSICSLYQLENYCGPGPAPGPAPGPAPGPAPGPAPGPAPGPAPGPAEVQLLESGGGLVQPGGSLRLSCAASGRTVSSTAVAWFRQAPGKEREFVAGIGGSVDITYYADSVKGRFTISRDNSKNTLYLQMNSLRPEDTAVYYCAVRPGRPLITSRDANLYDYWGQGTLVTVSS
notes: single-chain insulin B-L2-A-L1-VHH fusion; also called Ex. 2
Take B3: the Ki is 29.7 nM in experiment [3]; 31.9 nM in experiment [4]; 31.4 nM in experiment [1]; 56 nM in experiment [5]; 45.1 nM in experiment [2]; 39.2 nM in experiment [6].

B4: INS Analog 6 (other)
chain: FVNQHLCGSHLVEALYLVCGERGFHYTPKTGGGGGGGIVEQCCTSICSLYQLENYCGPGPAPGPAPGPAPGPAPGPAPGPAPGPAPGPAEVQLLESGGGLVQPGGSLRLSCAASGRTVSSTAVAWFRQAPGKEREFVAGIGGSVDITYYADSVKGRFTISRDNSKNTLYLQMNSLRPEDTAVYYCAVRPGRPLITSRDANLYDYWGQGTLVTVSS
notes: single-chain insulin B-L2-A-L1-VHH fusion; also called Ex. 6
In experiment [1], B4 yielded a Ki of 65.5 nM.

B5: INS Analog 4 (other)
chain: FVNQHLCGSHLVEALELVCGERGFFYTPKTGGGGGGGIVEQCCTSICSLYQLENYCGPGPAPGPAPGPAPGPAPGPAPGPAPGPAPGPAEVQLLESGGGLVQPGGSLRLSCAASGRTVSSTAVAWFRQAPGKEREFVAGIGGSVDITYYADSVKGRFTISRDNSKNTLYLQMNSLRPEDTAVYYCAVRPGRPLITSRDANLYDYWGQGTLVTVSS
notes: single-chain insulin B-L2-A-L1-VHH fusion; also called Ex. 4
B5 came in with an inhibitory constant (Ki) in experiment [1] of 591 nM.

B6: INS Analog 3 (other)
chain: FVNQHLCGAHLVEALYLVCGERGFFYTPKTGGGGGGGIVEQCCTSICSLYQLENYCGPGPAPGPAPGPAPGPAPGPAPGPAPGPAPGPAEVQLLESGGGLVQPGGSLRLSCAASGRTVSSTAVAWFRQAPGKEREFVAGIGGSVDITYYADSVKGRFTISRDNSKNTLYLQMNSLRPEDTAVYYCAVRPGRPLITSRDANLYDYWGQGTLVTVSS
notes: single-chain insulin B-L2-A-L1-VHH fusion; also called Ex. 3
In experiment [1], B6 registered a Ki of 45.2 nM.

B7: INS Analog 5 (other)
chain: FVNQHLCGSHLVEALHLVCGERGFFYTPKTGGGGGGGIVEQCCTSICSLYQLENYCGPGPAPGPAPGPAPGPAPGPAPGPAPGPAPGPAEVQLLESGGGLVQPGGSLRLSCAASGRTVSSTAVAWFRQAPGKEREFVAGIGGSVDITYYADSVKGRFTISRDNSKNTLYLQMNSLRPEDTAVYYCAVRPGRPLITSRDANLYDYWGQGTLVTVSS
notes: single-chain insulin B-L2-A-L1-VHH fusion; also called Ex. 5
As for B7, the Ki in experiment [1] was 57 nM. This Ki and that of the molecule before are within 1.5-fold of each other.

B8: INS Analog 17 (other)
chain: FVSQHLCGSHLVEALRLVCGERGFFYTPKTGGGGGGGIVEQCCHSICSLYQLENYCGPGPAPGPAPGPAPGPAPGPAPGPAPGPAPGPAEVQLLESGGGLVQPGGSLRLSCAASGRYIDETAVAWFRQAPGKEREFVAGIGGGVDITYYADSVKGRFTISRDNSKNTLYLQMNSLRPEDTAVYYCAARPGRPLITSKVADLYPYWGQGTLVTVSSPP
notes: single-chain insulin B-L2-A-L1-VHH fusion; also called Ex. 17
In the case of B8, the inhibitory constant (Ki) in experiment [3] worked out at 102 nM; in experiment [4], 31.3 nM; in experiment [1] it was 81.8 nM; in experiment [5], 110 nM; in experiment [2], 31.3 nM; in experiment [6], 44.3 nM.

B9: INS Analog 16 (other)
chain: FVSQHLCGSHLVEALWLVCGERGFFYTPKTGGGGGGGIVEQCCTSICSLYQLENYCGPGPAPGPAPGPAPGPAPGPAPGPAPGPAPGPAEVQLLESGGGLVQPGGSLRLSCAASGRYIDETAVAWFRQAPGKEREFVAGIGGGVDITYYADSVKGRFTISRDNSKNTLYLQMNSLRPEDTAVYYCAARPGRPLITSKVADLYPYWGQGTLVTVSSPP
notes: single-chain insulin B-L2-A-L1-VHH fusion; also called Ex. 16
Take B9: the results for the inhibition constant (Ki) in experiment [1] and in experiment [2] were 46 nM and 43.1 nM, respectively.

B10: INS Analog 22 (other)
chain: FVSQHLCGSHLVEALHLVCGERGFHYTPKTGGGGGGGIVEQCCHSICSLYQLENYCGPGPQPGPQPGPQPGPQPGPQPGPQPGPQPGPQEVQLLESGGGLVQPGGSLRLSCAASGRYIDETAVAWFRQAPGKEREFVAGIGGGVDITYYADSVKGRFTISRDNSKNTLYLQMNSLRPEDTAVYYCAARPGRPLITSKVADLYPYWGQGTLVTVSSPP
notes: single-chain insulin B-L2-A-L1-VHH fusion; also called Ex. 22
For the molecule B10, the Ki in experiment [1] is 59.7 nM; in experiment [2], 17.1 nM.

B11: INS Analog 20 (other)
chain: FVSQHLCGSHLVEALYLVCGERGFFYTPKTGGGGGGGIVEQCCTSICSLYQLENYCGPGPQPGPQPGPQPGPQPGPQPGPQPGPQPGPQEVQLLESGGGLVQPGGSLRLSCAASGRYIDETAVAWFRQAPGKEREFVAGIGGGVDITYYADSVKGRFTISRDNSKNTLYLQMNSLRPEDTAVYYCAARPGRPLITSKVADLYPYWGQGTLVTVSSPP
notes: single-chain insulin B-L2-A-L1-VHH fusion; also called Ex. 20
B11: the inhibition constant Ki in experiment [1] was 51.3 nM; in experiment [2], 18.5 nM.

B12: INS Analog 8 (other)
chain: FVSQHLCGSHLVEALYLVCGERGFHYTPKTGGGGGGGIVEQCCTSICSLYQLENYCGPGPAPGPAPGPAPGPAPGPAPGPAPGPAPGPAEVQLLESGGGLVQPGGSLRLSCAASGRYIDETAVAWFRQAPGKEREFVAGIGGGVDITYYADSVKGRFTISRDNSKNTLYLQMNSLRPEDTAVYYCAARPGRPLITSKVADLYPYWGQGTLVTVSSPP
notes: single-chain insulin B-L2-A-L1-VHH fusion; also called Ex. 8
Take B12: the Ki in experiment [1] is 139 nM; in experiment [2] it was 47.3 nM.

B13: INS Analog 11 (other)
chain: FVSQHLCGSHLVEALHLVCGERGFFYTPKTGGGGGGGIVEQCCHSICSLEQLENYCGPGPAPGPAPGPAPGPAPGPAPGPAPGPAPGPAEVQLLESGGGLVQPGGSLRLSCAASGRYIDETAVAWFRQAPGKEREFVAGIGGGVDITYYADSVKGRFTISRDNSKNTLYLQMNSLRPEDTAVYYCAARPGRPLITSKVADLYPYWGQGTLVTVSSPP
notes: single-chain insulin B-L2-A-L1-VHH fusion; also called Ex. 11
As to B13, the Ki in experiment [3] is 95.4 nM; in experiment [4], 31.8 nM; in experiment [1], 36 nM; in experiment [5], 164 nM; in experiment [2] it was 20.5 nM; in experiment [6], 81.1 nM.

B14: INS Analog 10 (other)
chain: FVSQHLCGSHLVEALHLVCGERGFFYTPKTGGGGGGGIVEQCCTSICSLYQLENYCGPGPAPGPAPGPAPGPAPGPAPGPAPGPAPGPAEVQLLESGGGLVQPGGSLRLSCAASGRYIDETAVAWFRQAPGKEREFVAGIGGGVDITYYADSVKGRFTISRDNSKNTLYLQMNSLRPEDTAVYYCAARPGRPLITSKVADLYPYWGQGTLVTVSSPP
notes: single-chain insulin B-L2-A-L1-VHH fusion; also called Ex. 10
Take B14: the results for the inhibition constant (Ki) in experiment [1] and in experiment [2] were 146 nM and 20.1 nM, respectively.

B15: INS Analog 7 (other)
chain: FVSQHLCGSHLVEALYLVCGERGFFYTPKTGGGGGGGIVEQCCTSICSLYQLENYCGPGPAPGPAPGPAPGPAPGPAPGPAPGPAPGPAEVQLLESGGGLVQPGGSLRLSCAASGRYIDETAVAWFRQAPGKEREFVAGIGGGVDITYYADSVKGRFTISRDNSKNTLYLQMNSLRPEDTAVYYCAARPGRPLITSKVADLYPYWGQGTLVTVSSPP
notes: single-chain insulin B-L2-A-L1-VHH fusion; also called Ex. 7
For the molecule B15, the Ki worked out at 47.1 nM in experiment [3]; 36.3 nM in experiment [4]; 36.1 nM in experiment [1]; 120 nM in experiment [5]; 14.3 nM in experiment [2]; 45.4 nM in experiment [6].

B16: INS Analog 15 (other)
chain: FVSQHLCGSHLVEALFLVCGERGFFYTPKTGGGGGGGIVEQCCTSICSLYQLENYCGPGPAPGPAPGPAPGPAPGPAPGPAPGPAPGPAEVQLLESGGGLVQPGGSLRLSCAASGRYIDETAVAWFRQAPGKEREFVAGIGGGVDITYYADSVKGRFTISRDNSKNTLYLQMNSLRPEDTAVYYCAARPGRPLITSKVADLYPYWGQGTLVTVSSPP
notes: single-chain insulin B-L2-A-L1-VHH fusion; also called Ex. 15
Consider B16, for which the figures for the inhibition constant (Ki) in experiment [1] and in experiment [2] were 39.2 nM and 13.1 nM, respectively.

B17: INS Analog 9 (other)
chain: FVSQHLCGSHLVEALYLVCGERGFHYTPKTGGGGGGGIVEQCCHSICSLYQLENYCGPGPAPGPAPGPAPGPAPGPAPGPAPGPAPGPAEVQLLESGGGLVQPGGSLRLSCAASGRYIDETAVAWFRQAPGKEREFVAGIGGGVDITYYADSVKGRFTISRDNSKNTLYLQMNSLRPEDTAVYYCAARPGRPLITSKVADLYPYWGQGTLVTVSSPP
notes: single-chain insulin B-L2-A-L1-VHH fusion; also called Ex. 9
As for B17, the values for the inhibition constant Ki in experiment [1] and in experiment [2] were 11.7 nM and 6.67 nM, respectively.
